Test results reported in US20260217779A1.

Assays:
Assay in all cases: cell-based or functional assay
[1] = biological target: hCXCL10R75A.0044-G1T4k.one//VHn-G1T4h.one.H435R (human) [IgG part: P01857]
[2] = biological target: hCXCL10R75A.0009-G1T4k.one//VHn-G1T4h.one.H435R (human) [IgG part: P01857]
[3] = biological target: hCXCL10R75A-G1T4k.one//VHn-G1T4h.one.H435R (human) [IgG part: P01857]
[4] = biological target: hCXCL10R75A.0053-G1T4k.one//VHn-G1T4h.one.H435R (human) [IgG part: P01857]
[5] = biological target: hCXCL10R75A.0047-G1T4k.one//VHn-G1T4h.one.H435R (human) [IgG part: P01857]
[6] = biological target: hCXCL10R75A.0016-G1T4k.one//VHn-G1T4h.one.H435R (human) [IgG part: P01857]
[7] = biological target: hCXCL10R75A.0038-G1T4k.one//VHn-G1T4h.one.H435R (human) [IgG part: P01857]
[8] = biological target: hCXCL10R75A.0041-G1T4k.one//VHn-G1T4h.one.H435R (human) [IgG part: P01857]
[9] = biological target: hCXCL10R75A.0017-G1T4k.one//VHn-G1T4h.one.H435R (human) [IgG part: P01857]
[10] = biological target: hCXCL10R75A.0033-G1T4k.one//VHn-G1T4h.one.H435R (human) [IgG part: P01857]
[11] = biological target: hCXCL10R75A.0031-G1T4k.one//VHn-G1T4h.one.H435R (human) [IgG part: P01857]
[12] = biological target: hCXCL10R75A.0027-G1T4k.one//VHn-G1T4h.one.H435R (human) [IgG part: P01857]
[13] = biological target: hCXCL10R75A.0004-G1T4k.one//VHn-G1T4h.one.H435R (human) [IgG part: P01857]
[14] = biological target: hCXCL10R75A.0005-G1T4k.one//VHn-G1T4h.one.H435R (human) [IgG part: P01857]
[15] = biological target: hCXCL10R75A.0049-G1T4k.one//VHn-G1T4h.one.H435R (human) [IgG part: P01857]
[16] = biological target: hCXCL10R75A.0029-G1T4k.one//VHn-G1T4h.one.H435R (human) [IgG part: P01857]
[17] = biological target: hCXCL10R75A.0023-G1T4k.one//VHn-G1T4h.one.H435R (human) [IgG part: P01857]
[18] = biological target: hCXCL10R75A.0018-G1T4k.one//VHn-G1T4h.one.H435R (human) [IgG part: P01857]
[19] = biological target: hCXCL10R75A.0015-G1T4k.one//VHn-G1T4h.one.H435R (human) [IgG part: P01857]
[20] = biological target: hCXCL10R75A.0036-G1T4k.one//VHn-G1T4h.one.H435R (human) [IgG part: P01857]
[21] = biological target: hCXCL10R75A.0007-G1T4k.one//VHn-G1T4h.one.H435R (human) [IgG part: P01857]
[22] = biological target: hCXCL10R75A.0001-G1T4k.one//VHn-G1T4h.one.H435R (human) [IgG part: P01857]
[23] = biological target: hCXCL10R75A.0034-G1T4k.one//VHn-G1T4h.one.H435R (human) [IgG part: P01857]
[24] = biological target: hCXCL10R75A.0025-G1T4k.one//VHn-G1T4h.one.H435R (human) [IgG part: P01857]
[25] = biological target: hCXCL10R75A.0019-G1T4k.one//VHn-G1T4h.one.H435R (human) [IgG part: P01857]
[26] = biological target: hCXCL10R75A.0054-G1T4k.one//VHn-G1T4h.one.H435R (human) [IgG part: P01857]
[27] = biological target: hCXCL10R75A.0010-G1T4k.one//VHn-G1T4h.one.H435R (human) [IgG part: P01857]
[28] = biological target: hCXCL10R75A.0042-G1T4k.one//VHn-G1T4h.one.H435R (human) [IgG part: P01857]

Chain of human dipeptidyl peptidase IV (human DPPIV, hDPPIV) (Biolegend, 764102) (P27487 29-766 limits assumed): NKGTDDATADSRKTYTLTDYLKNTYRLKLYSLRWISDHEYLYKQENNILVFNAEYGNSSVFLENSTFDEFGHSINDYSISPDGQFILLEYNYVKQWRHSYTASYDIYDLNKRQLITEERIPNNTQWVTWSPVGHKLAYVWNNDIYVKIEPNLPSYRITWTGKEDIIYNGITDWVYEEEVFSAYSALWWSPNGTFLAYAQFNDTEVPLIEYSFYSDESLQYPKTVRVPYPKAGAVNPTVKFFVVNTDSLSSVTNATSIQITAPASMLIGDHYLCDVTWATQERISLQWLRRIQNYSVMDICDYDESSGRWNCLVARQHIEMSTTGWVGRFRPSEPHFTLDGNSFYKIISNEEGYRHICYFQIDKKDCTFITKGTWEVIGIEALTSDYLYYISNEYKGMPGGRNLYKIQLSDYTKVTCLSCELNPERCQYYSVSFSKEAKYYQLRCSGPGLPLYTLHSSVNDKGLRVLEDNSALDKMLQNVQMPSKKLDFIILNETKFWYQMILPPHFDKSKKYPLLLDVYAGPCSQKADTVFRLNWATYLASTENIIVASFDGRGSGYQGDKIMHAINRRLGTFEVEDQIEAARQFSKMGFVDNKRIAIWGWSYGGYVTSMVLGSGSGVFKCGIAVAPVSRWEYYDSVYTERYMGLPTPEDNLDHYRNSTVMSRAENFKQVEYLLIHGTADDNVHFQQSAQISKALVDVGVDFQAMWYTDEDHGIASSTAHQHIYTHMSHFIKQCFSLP
Chain of hCXCL10R75A.0041-G1T4k.one//VHn-G1T4h.one.H435R (human) [IgG part: P01857] (P01857 other isoform, or with tags, fused parts or gaps H435R H435R, chain 1 of 2): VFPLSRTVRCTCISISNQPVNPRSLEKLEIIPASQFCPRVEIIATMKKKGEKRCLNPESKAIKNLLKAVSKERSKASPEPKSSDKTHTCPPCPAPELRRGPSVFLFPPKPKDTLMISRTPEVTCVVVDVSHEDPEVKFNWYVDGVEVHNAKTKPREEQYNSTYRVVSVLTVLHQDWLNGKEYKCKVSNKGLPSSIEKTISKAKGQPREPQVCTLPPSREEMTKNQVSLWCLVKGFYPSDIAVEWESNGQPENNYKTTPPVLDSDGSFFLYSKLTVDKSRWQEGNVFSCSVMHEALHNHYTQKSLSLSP
Chain of hCXCL10R75A.0041-G1T4k.one//VHn-G1T4h.one.H435R (human) [IgG part: P01857] (P01857 other isoform, or with tags, fused parts or gaps H435R H435R, chain 2 of 2): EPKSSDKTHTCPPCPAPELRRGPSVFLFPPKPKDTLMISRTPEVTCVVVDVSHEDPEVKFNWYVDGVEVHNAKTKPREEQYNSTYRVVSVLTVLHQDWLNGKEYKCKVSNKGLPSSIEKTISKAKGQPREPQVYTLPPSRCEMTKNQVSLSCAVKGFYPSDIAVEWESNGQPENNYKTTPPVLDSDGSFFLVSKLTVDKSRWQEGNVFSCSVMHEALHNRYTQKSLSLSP
Chain of hCXCL10R75A.0054-G1T4k.one//VHn-G1T4h.one.H435R (human) [IgG part: P01857] (P01857 other isoform, or with tags, fused parts or gaps H435R H435R, chain 1 of 2): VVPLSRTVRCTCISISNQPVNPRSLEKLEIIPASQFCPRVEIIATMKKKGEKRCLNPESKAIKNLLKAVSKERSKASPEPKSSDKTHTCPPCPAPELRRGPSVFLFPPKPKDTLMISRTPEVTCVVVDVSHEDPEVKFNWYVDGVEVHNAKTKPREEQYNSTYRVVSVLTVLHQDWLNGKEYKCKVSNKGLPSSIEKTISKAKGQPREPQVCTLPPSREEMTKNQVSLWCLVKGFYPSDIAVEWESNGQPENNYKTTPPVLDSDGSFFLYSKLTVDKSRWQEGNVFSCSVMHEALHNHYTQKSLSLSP
Chain of hCXCL10R75A.0054-G1T4k.one//VHn-G1T4h.one.H435R (human) [IgG part: P01857] (P01857 other isoform, or with tags, fused parts or gaps H435R H435R, chain 2 of 2): as the sequence (P01857 other isoform, or with tags, fused parts or gaps H435R H435R, chain 2 of 2) above
Chain of hCXCL10R75A.0004-G1T4k.one//VHn-G1T4h.one.H435R (human) [IgG part: P01857] (P01857 other isoform, or with tags, fused parts or gaps H435R H435R, chain 1 of 2): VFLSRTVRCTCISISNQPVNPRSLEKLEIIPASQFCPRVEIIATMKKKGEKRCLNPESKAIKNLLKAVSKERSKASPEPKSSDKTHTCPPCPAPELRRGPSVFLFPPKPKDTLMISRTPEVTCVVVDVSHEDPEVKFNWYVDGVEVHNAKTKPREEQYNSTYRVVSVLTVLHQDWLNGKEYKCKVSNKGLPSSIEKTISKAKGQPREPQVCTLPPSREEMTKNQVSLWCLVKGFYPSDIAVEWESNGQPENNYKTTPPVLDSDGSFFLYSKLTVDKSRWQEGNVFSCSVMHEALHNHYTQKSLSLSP
Chain of hCXCL10R75A.0004-G1T4k.one//VHn-G1T4h.one.H435R (human) [IgG part: P01857] (P01857 other isoform, or with tags, fused parts or gaps H435R H435R, chain 2 of 2): as the sequence (P01857 other isoform, or with tags, fused parts or gaps H435R H435R, chain 2 of 2) above
Chain of hCXCL10R75A.0031-G1T4k.one//VHn-G1T4h.one.H435R (human) [IgG part: P01857] (P01857 other isoform, or with tags, fused parts or gaps H435R H435R, chain 1 of 2): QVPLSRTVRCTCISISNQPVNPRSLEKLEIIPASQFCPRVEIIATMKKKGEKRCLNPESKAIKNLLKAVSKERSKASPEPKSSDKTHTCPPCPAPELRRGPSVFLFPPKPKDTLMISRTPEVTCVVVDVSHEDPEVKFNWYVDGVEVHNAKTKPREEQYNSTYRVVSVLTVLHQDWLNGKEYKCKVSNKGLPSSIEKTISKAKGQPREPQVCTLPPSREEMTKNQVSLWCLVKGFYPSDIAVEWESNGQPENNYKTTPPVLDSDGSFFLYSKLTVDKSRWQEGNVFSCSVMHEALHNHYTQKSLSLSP
Chain of hCXCL10R75A.0031-G1T4k.one//VHn-G1T4h.one.H435R (human) [IgG part: P01857] (P01857 other isoform, or with tags, fused parts or gaps H435R H435R, chain 2 of 2): as the sequence (P01857 other isoform, or with tags, fused parts or gaps H435R H435R, chain 2 of 2) above
Chain of hCXCL10R75A.0036-G1T4k.one//VHn-G1T4h.one.H435R (human) [IgG part: P01857] (P01857 other isoform, or with tags, fused parts or gaps H435R H435R, chain 1 of 2): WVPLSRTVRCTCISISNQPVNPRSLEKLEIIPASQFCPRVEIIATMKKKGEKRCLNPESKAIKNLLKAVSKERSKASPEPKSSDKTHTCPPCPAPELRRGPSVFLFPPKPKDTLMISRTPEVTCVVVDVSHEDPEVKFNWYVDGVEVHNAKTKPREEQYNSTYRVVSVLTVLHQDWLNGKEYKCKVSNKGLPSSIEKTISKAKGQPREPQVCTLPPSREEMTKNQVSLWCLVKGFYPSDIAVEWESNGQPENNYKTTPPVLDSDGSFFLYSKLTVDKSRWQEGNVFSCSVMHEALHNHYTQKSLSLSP
Chain of hCXCL10R75A.0036-G1T4k.one//VHn-G1T4h.one.H435R (human) [IgG part: P01857] (P01857 other isoform, or with tags, fused parts or gaps H435R H435R, chain 2 of 2): as the sequence (P01857 other isoform, or with tags, fused parts or gaps H435R H435R, chain 2 of 2) above
Chain of hCXCL10R75A.0034-G1T4k.one//VHn-G1T4h.one.H435R (human) [IgG part: P01857] (P01857 other isoform, or with tags, fused parts or gaps H435R H435R, chain 1 of 2): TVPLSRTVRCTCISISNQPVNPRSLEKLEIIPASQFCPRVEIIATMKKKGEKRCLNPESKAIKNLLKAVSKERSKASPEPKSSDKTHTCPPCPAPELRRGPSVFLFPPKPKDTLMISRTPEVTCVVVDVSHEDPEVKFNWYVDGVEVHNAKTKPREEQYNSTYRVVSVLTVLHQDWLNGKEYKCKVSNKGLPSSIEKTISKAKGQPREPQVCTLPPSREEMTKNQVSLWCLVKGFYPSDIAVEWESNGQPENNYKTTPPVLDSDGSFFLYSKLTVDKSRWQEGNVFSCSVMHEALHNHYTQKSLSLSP
Chain of hCXCL10R75A.0034-G1T4k.one//VHn-G1T4h.one.H435R (human) [IgG part: P01857] (P01857 other isoform, or with tags, fused parts or gaps H435R H435R, chain 2 of 2): as the sequence (P01857 other isoform, or with tags, fused parts or gaps H435R H435R, chain 2 of 2) above
Chain of hCXCL10R75A.0009-G1T4k.one//VHn-G1T4h.one.H435R (human) [IgG part: P01857] (P01857 other isoform, or with tags, fused parts or gaps H435R H435R, chain 1 of 2): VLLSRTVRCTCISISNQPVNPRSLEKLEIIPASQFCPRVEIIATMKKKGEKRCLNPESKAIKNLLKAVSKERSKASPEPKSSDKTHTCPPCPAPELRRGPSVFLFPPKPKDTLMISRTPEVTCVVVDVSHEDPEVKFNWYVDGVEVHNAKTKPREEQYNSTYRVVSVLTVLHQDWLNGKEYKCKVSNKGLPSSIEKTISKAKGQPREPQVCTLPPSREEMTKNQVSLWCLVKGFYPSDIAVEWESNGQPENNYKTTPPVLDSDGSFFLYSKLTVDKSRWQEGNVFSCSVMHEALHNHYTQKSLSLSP
Chain of hCXCL10R75A.0009-G1T4k.one//VHn-G1T4h.one.H435R (human) [IgG part: P01857] (P01857 other isoform, or with tags, fused parts or gaps H435R H435R, chain 2 of 2): as the sequence (P01857 other isoform, or with tags, fused parts or gaps H435R H435R, chain 2 of 2) above

human dipeptidyl peptidase IV (human DPPIV, hDPPIV) (Biolegend, 764102) (from UniProt P27487 29-766) (enzyme)
mass change after hDPPIV treatment (LC/MS) [1]: 0 Da | mass change after hDPPIV treatment (LC/MS) [2]: 1 Da | mass change after hDPPIV treatment (LC/MS) [3]: 195 Da | mass change after hDPPIV treatment (LC/MS) [4]: -2 Da | mass change after hDPPIV treatment (LC/MS) [5]: 0 Da | mass change after hDPPIV treatment (LC/MS) [6]: 1 Da | mass change after hDPPIV treatment (LC/MS) [7]: 0 Da | mass change after hDPPIV treatment (LC/MS) [8]: 0 Da | mass change after hDPPIV treatment (LC/MS) [9]: 0 Da | mass change after hDPPIV treatment (LC/MS) [10]: 2 Da | mass change after hDPPIV treatment (LC/MS) [11]: 0 Da | mass change after hDPPIV treatment (LC/MS) [12]: 1 Da | mass change after hDPPIV treatment (LC/MS) [13]: 1 Da | mass change after hDPPIV treatment (LC/MS) [14]: -1 Da | mass change after hDPPIV treatment (LC/MS) [15]: 1 Da | mass change after hDPPIV treatment (LC/MS) [16]: -1 Da | mass change after hDPPIV treatment (LC/MS) [17]: 1 Da | mass change after hDPPIV treatment (LC/MS) [18]: 0 Da | mass change after hDPPIV treatment (LC/MS) [19]: 0 Da | mass change after hDPPIV treatment (LC/MS) [20]: 0 Da | mass change after hDPPIV treatment (LC/MS) [21]: 1 Da | mass change after hDPPIV treatment (LC/MS) [22]: 171 Da | mass change after hDPPIV treatment (LC/MS) [23]: 0 Da | mass change after hDPPIV treatment (LC/MS) [24]: 0 Da | mass change after hDPPIV treatment (LC/MS) [25]: 1 Da | mass change after hDPPIV treatment (LC/MS) [26]: 0 Da | mass change after hDPPIV treatment (LC/MS) [27]: -1 Da | mass change after hDPPIV treatment (LC/MS) [28]: 1 Da
